Consider 4 molecules from patent publication US20230374526A1, “FORSKOLIN-INDUCIBLE PROMOTERS AND HYPOXIA-INDUCIBLE PROMOTERS” (ASKLEPIOS BIOPHARMACEUTICAL, INC., priority 2020, published 2023).

The test system of one data set is HEK-293 cells. In words: Optimum inducer concentration to induce expression. The data set is classed as cell-based, human.
A further data set deals with Pro10 cells. In words: Rep78 expression via western blot under second generation forskolin-inducible promoters. The following applies: for Rep78 expression in the presence of forskolin: 10 μM forskolin, 24 hrs; for Rep78 expression in the presence of forskolin / Rep78 expression in the absence of forskolin: western blot; for Rep78 expression in the absence of forskolin: DMSO control. The data set is classed as cell-based. As to the method: HEK293-T (ATCC-CRL-3216) cell lines were maintained in DMEM plus 10% FBS as described for HEK293 cells. Plasmids to be transfected were linearised and transfected using Lipofectamine 2000 (Invitrogen, 11668027) as per the manufacturer's instructions. The cells were then cultured for 48 hrs in non-selective medium before being switched to selective medium (standard medium plus Blasticidin 5 ug/ml (Thermofisher, A1113902).
Each of the promoters were tested for their ability to induce expression of the Rep78 protein. To eliminate the expression of Rep52, we have mutated the ATG start codon in Rep52 to an AGG. All constructs were synthesized by Genewiz. Pro10 cells were cultured and transfected using lipofectamine 2000 as previously described. 24 hrs after transfection 10 μM forskolin was added to the cells. Control wells were given DMSO as forskolin was dissolved in this carrier. After another 24 hrs the cells were then lysed and lysates were analysed for Rep78 expression via western blot.
Cells are collected in Eppendorf tubes and centrifuged at 300 g for 5 mins in a tabletop centrifuge. Supernatants are discarded and cell pellets are lysed in 1× radioimmunoprecipitation assay (RIPA) buffer, which is made up of RIPA Lysis & Extraction Buffer (Thermofisher, UK, 89900), 100×Halt Protease Inhibitor (Thermofisher, UK, 78445). After addition of the cell lysis buffer all samples are constantly kept on ice. The samples are vortexed and either stored at −20° C. overnight or kept on ice for 30 mins prior to centrifugation at full speed (21,130 g) in the tabletop centrifuge for 20 mins at 4° C. for the removal of any insoluble material. Cell lysates are mixed with 4×LDS loading sample buffer and 10× sample reducing agent (ThermoFisher, UK, NP0007 and NP0004); they are briefly spun down, heated to 95° C. for 10 mins, allowed to cool to 10° C., briefly spun down again and then separated on polyacrylamide gels (NuPAGE Novex 4-12% Bis-Tris Gels, 1.0 mm; ThermoFisher UK, NP0324BOX), which are allowed to reach room temperature before use. The PageRuler™ Prestained NIR Protein Ladder (ThermoFisher, UK, 26635) is run alongside the cell lysates for size comparison purposes. Gels are run at 150V for 1 hour 15 mins using ThermoFisher's XCell SureLock Mini-Cell system. Gels are then transferred to nitrocellulose membranes using the iBlot 2 Dry Blotting System, p0 programme, (ThermoFisher, UK) according to the manufacturer's instructions. Initially, a total protein stain is performed following the manufacturer's instructions (Revert™ 700 Total Protein Stain for Western Blot Normalization; Licor, UK, 926-11011), and this is followed by immunoblotting of the membranes. The membranes are specifically transferred to falcon tubes where they are first blocked with the Licor Odyssey® blocking buffer at room temperature for 1 hour, followed by probing with suitable primary antibodies resuspended in the Licor Odyssey® blocking buffer in a cold room set at 4° C. overnight. The following day membranes are washed 3× in PBS-T (0.05%) for 5 mins each time and then probed with a suitable secondary antibody for 1.5 hours at room temperature. Secondary antibodies typically contain a fluorescent tag for visualisation purposes. Membranes are washed once again 2× in PBS-T (0.05%) for 5 mins each time followed by a final wash in 1×PBS for 5 mins. The membranes are imaged using an Odyssey® Fc Licor imaging system.
The antibodies used in this experiment were: primary antibody: anti-Rep antibody 303.9 clone (Progen, 61069) and Secondary antibody: LICOR anti-mouse 800 nm (LICOR, 926-32210).
We also tested the ability of the AAV helper functions to induce the activity of the best performing promoter FORN-pJB42. Transfections were carried out as previously described. Conditions are as follows, FORN-pJB42 controlling expression of Rep78 was transfected with and without the adenovirus helper functions. […]
For orientation: In western blotting, separated proteins are transferred to a membrane and probed.

For `C=C[C@@]1(C)CC(=O)[C@]2(O)[C@@]3(C)[C@@H](O)CCC(C)(C)[C@@H]3[C@H](O)[C@H](OC(C)=O)[C@@]2(C)O1` [Forskolin], the “Concentration determined to be optimum to induce expression” value in the data set on HEK-293 cells is listed as “about 18 μM”.

B1: Synp-FORNEW: synthetic forskolin-inducible promoter, SEQ ID NO: 62; 7×cAMPRE and 6×AP1(3) with YB-TATA minimal promoter (nucleic acid)
DNA: AATAAAATATCTTTATTTTCATTACATCTGTGTGTTGGTTTTTTGTGTGCCATTGACGTCACGATTTGACGTCAACCATTGACGTCACGATTTGACGTCAACCATTGACGTCACGATTTGACGTCACGATTTGACGTCAACCATTGACTCACGATTTGACTCAACCATTGACTCACGATTTGACTCAACCATTGACTCACGATTTGACTCACGATTGCGATTAATCCATATGCTCTAGAGGGTATATAATGGGGGCCACTAGTCTACTACCAGAAAGCTTGGTACCGAGCTCGGATCCAGCCACC
modifications: Synp-FORNEW
notes: 7×cAMPRE and 6×AP1(3) with YB-TATA minimal promoter
Regarding B1, in the data set with Pro10 cells, the “Rep78 expression in the presence of forskolin” value is listed as “strong expression” and the “Rep78 expression in the absence of forskolin” value is reported as “no Rep78 expression”.

B2: FORN-pJB42: synthetic forskolin-inducible promoter, SEQ ID NO: 73; 7×cAMPRE and 6×AP1(3) with pJB42 minimal promoter (nucleic acid)
DNA: AATAAAATATCTTTATTTTCATTACATCTGTGTGTTGGTTTTTTGTGTGCCATTGACGTCACGATTTGACGTCAACCATTGACGTCACGATTTGACGTCAACCATTGACGTCACGATTTGACGTCACGATTTGACGTCAACCATTGACTCACGATTTGACTCAACCATTGACTCACGATTTGACTCAACCATTGACTCACGATTTGACTCACGATTCTGACAAATTCAGTATAAAAGCTTGGGGCTGGGGCCGAGCACTGGGGACTTTGAGGGTGGCCAGGCCAGCGTAGGAGGCCAGCGTAGGATCCTGCTGGGAGCGGGGAACTGAGGGAAGCGACGCCGAGAAAGCAGGCGTACCACGGAGGGAGAGAAAAGCTCCGGAAGCCCAGCAGCGGCCACC
modifications: Synp-FORNpJB42
notes: 7×cAMPRE and 6×AP1(3) with pJB42 minimal promoter
On to B2, for which, in the data set on Pro10 cells, the “Rep78 expression in the presence of forskolin” value is on record as “strong expression” and the “Rep78 expression in the absence of forskolin” value is “no Rep78 expression”. Moreover, the “Promoter activity (Rep78) in the presence of helper functions, absence of forskolin” value with Pro10 cells (adenovirus helper functions (pHelper), DMSO) was “activated”. For the same molecule, the “Promoter activity (Rep78) in the presence of helper functions and forskolin” value with Pro10 cells (adenovirus helper functions and 10 μM forskolin) was “full activity”.

B3: Synp-FORNTATAm6a: synthetic forskolin-inducible promoter, SEQ ID NO: 74; 7×cAMPRE and 6×AP1(3) with TATA-m6A minimal promoter (nucleic acid)
DNA: AATAAAATATCTTTATTTTCATTACATCTGTGTGTTGGTTTTTTGTGTGCCATTGACGTCACGATTTGACGTCAACCATTGACGTCACGATTTGACGTCAACCATTGACGTCACGATTTGACGTCACGATTTGACGTCAACCATTGACTCACGATTTGACTCAACCATTGACTCACGATTTGACTCAACCATTGACTCACGATTTGACTCACGATTTATAAAAGGCAGAGCTCGTTTAGTGAACCGAAGCTTGGACTAAAGCGGACTTGTCTCGAG
modifications: Synp-FORNTATAm6a
notes: 7×cAMPRE and 6×AP1(3) with TATA-m6A minimal promoter
As for B3, in the data set with Pro10 cells, the “Rep78 expression in the presence of forskolin” value is “strong expression” and the “Rep78 expression in the absence of forskolin” value is recorded as “no Rep78 expression”.
